Assay results taken from paper PMC9482650, “Quantitative fragmentomics allow affinity mapping of interactomes” (Nature Communications, 2022).

Target: T1, CARD11, Q9BXL7
T1 sequence (Q9BXL7 662-765, limits assumed, looked up): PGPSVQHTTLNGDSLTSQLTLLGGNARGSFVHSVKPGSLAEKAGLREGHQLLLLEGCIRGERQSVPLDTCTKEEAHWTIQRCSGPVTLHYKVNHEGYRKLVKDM
Experiment: holdup assay
Design: key: below the threshold = too weak to quantify, mostly under pKd 3.1 to 4
Conditions: plain residues with an end cap or a label only (N-terminal biotin on a linker: ado-ado)

Binder	pKd
KKMPSIESDV [GRIN2A, Q12879]	below the threshold

Target: T2, DFNB31_2, Q9P202
T2 sequence (Q9P202 274-371, limits assumed, looked up): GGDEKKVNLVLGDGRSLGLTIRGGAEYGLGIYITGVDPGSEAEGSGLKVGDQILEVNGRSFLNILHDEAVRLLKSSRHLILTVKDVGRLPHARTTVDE
Experiment: holdup assay
Design: key: below the threshold = too weak to quantify, mostly under pKd 3.1 to 4
Conditions: plain residues with an end cap or a label only (N-terminal biotin on a linker: ado-ado)

Binder	pKd
KKMPSIESDV [GRIN2A, Q12879]	below the threshold

Target: T3, DFNB31_3, Q9P202
T3 sequence (Q9P202 811-907, limits assumed, looked up): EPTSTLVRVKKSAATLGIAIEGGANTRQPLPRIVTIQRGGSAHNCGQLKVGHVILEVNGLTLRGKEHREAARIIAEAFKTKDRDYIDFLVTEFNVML
Experiment: holdup assay
Design: key: below the threshold = too weak to quantify, mostly under pKd 3.1 to 4
Conditions: plain residues with an end cap or a label only (N-terminal biotin on a linker: ado-ado)

Binder	pKd
KKMPSIESDV [GRIN2A, Q12879]	below the threshold

Target: DLG1_1, Q12959
Experiment: holdup assay
Design: key: below the threshold = too weak to quantify, mostly under pKd 3.1 to 4
Conditions: plain residues with an end cap or a label only (N-terminal biotin on a linker: ado-ado)

Binder	pKd
KKMPSIESDV [GRIN2A, Q12879]	4.75

Target: DLG1_2, Q12959
Experiment: holdup assay
Design: key: below the threshold = too weak to quantify, mostly under pKd 3.1 to 4
Conditions: plain residues with an end cap or a label only (N-terminal biotin on a linker: ado-ado)

Binder	pKd
KKMPSIESDV [GRIN2A, Q12879]	5.44

Target: DLG2_3, Q15700
Experiment: holdup assay
Design: key: below the threshold = too weak to quantify, mostly under pKd 3.1 to 4
Conditions: plain residues with an end cap or a label only (N-terminal biotin on a linker: ado-ado)

Binder	pKd
KKMPSIESDV [GRIN2A, Q12879]	3.74

Target: FRMPD2_2, Q68DX3
Sequence (Q68DX3 944-1038): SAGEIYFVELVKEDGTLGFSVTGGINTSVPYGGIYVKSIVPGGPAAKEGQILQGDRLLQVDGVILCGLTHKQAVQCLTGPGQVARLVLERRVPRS
Experiment: holdup assay
Design: key: below the threshold = too weak to quantify, mostly under pKd 3.1 to 4
Conditions: plain residues with an end cap or a label only (N-terminal biotin on a linker: ado-ado)

Binder	pKd
KKMPSIESDV [GRIN2A, Q12879]	3.78

Target: FRMPD2_3, Q68DX3
Sequence (Q68DX3 1073-1166): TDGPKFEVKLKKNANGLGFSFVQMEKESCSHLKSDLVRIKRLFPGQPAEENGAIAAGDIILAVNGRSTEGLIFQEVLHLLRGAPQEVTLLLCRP
Experiment: holdup assay
Design: key: below the threshold = too weak to quantify, mostly under pKd 3.1 to 4
Conditions: plain residues with an end cap or a label only (N-terminal biotin on a linker: ado-ado)

Binder	pKd
KKMPSIESDV [GRIN2A, Q12879]	below the threshold

Target: GIPC2, Q8TF65
Sequence (Q8TF65 112-203): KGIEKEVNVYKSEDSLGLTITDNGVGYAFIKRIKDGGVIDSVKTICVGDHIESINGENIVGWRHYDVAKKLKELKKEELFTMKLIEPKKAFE
Experiment: holdup assay
Design: key: below the threshold = too weak to quantify, mostly under pKd 3.1 to 4
Conditions: plain residues with an end cap or a label only (N-terminal biotin on a linker: ado-ado)

Binder	pKd
KKMPSIESDV [GRIN2A, Q12879]	3.84

Target: GRASP, Q7Z6J2
Sequence (Q7Z6J2 96-193): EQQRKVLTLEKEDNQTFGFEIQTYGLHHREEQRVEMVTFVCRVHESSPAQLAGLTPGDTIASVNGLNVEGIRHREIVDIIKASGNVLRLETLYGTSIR
Experiment: holdup assay
Design: key: below the threshold = too weak to quantify, mostly under pKd 3.1 to 4
Conditions: plain residues with an end cap or a label only (N-terminal biotin on a linker: ado-ado)

Binder	pKd
KKMPSIESDV [GRIN2A, Q12879]	below the threshold

Target: GRID2IP_2, A4D2P6
Sequence (A4D2P6 272-370): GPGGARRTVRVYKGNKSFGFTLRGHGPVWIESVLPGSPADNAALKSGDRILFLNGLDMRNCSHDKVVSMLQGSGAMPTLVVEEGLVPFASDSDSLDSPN
Experiment: holdup assay
Design: key: below the threshold = too weak to quantify, mostly under pKd 3.1 to 4
Conditions: plain residues with an end cap or a label only (N-terminal biotin on a linker: ado-ado)

Binder	pKd
KKMPSIESDV [GRIN2A, Q12879]	3.59

Target: GRIP2_5, Q9C0E4
Sequence (Q9C0E4 544-642): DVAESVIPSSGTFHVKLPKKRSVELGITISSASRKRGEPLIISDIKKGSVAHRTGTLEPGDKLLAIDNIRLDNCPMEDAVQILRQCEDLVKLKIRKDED
Experiment: holdup assay
Design: key: below the threshold = too weak to quantify, mostly under pKd 3.1 to 4
Conditions: plain residues with an end cap or a label only (N-terminal biotin on a linker: ado-ado)

Binder	pKd
KKMPSIESDV [GRIN2A, Q12879]	below the threshold

Target: GRIP2_6, Q9C0E4
Sequence (Q9C0E4 648-740): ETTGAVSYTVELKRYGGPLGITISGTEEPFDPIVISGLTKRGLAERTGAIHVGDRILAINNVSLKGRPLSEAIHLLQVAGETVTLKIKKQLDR
Experiment: holdup assay
Design: key: below the threshold = too weak to quantify, mostly under pKd 3.1 to 4
Conditions: plain residues with an end cap or a label only (N-terminal biotin on a linker: ado-ado)

Binder	pKd
KKMPSIESDV [GRIN2A, Q12879]	below the threshold

Target: IL16_3, Q14005
Sequence (Q14005 1107-1207): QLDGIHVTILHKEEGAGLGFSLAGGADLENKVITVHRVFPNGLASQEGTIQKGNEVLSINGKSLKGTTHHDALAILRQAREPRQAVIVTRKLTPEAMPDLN
Experiment: holdup assay
Design: key: below the threshold = too weak to quantify, mostly under pKd 3.1 to 4
Conditions: plain residues with an end cap or a label only (N-terminal biotin on a linker: ado-ado)

Binder	pKd
KKMPSIESDV [GRIN2A, Q12879]	below the threshold

Target: T4, LIN7A, O14910
T4 sequence (O14910 103-200, limits assumed, looked up): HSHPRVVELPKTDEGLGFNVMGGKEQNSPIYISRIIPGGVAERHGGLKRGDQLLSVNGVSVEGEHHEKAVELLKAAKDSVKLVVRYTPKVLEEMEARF
Experiment: holdup assay
Design: key: below the threshold = too weak to quantify, mostly under pKd 3.1 to 4
Conditions: plain residues with an end cap or a label only (N-terminal biotin on a linker: ado-ado)

Binder	pKd
KKMPSIESDV [GRIN2A, Q12879]	below the threshold

Target: MAGI2_2, Q86UL8
Sequence (Q86UL8 410-522): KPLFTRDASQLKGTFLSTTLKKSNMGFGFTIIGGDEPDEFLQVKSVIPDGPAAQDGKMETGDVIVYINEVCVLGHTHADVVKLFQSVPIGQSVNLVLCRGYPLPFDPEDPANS
Experiment: holdup assay
Design: key: below the threshold = too weak to quantify, mostly under pKd 3.1 to 4
Conditions: plain residues with an end cap or a label only (N-terminal biotin on a linker: ado-ado)

Binder	pKd
KKMPSIESDV [GRIN2A, Q12879]	4.05

Target: MAST1, Q9Y2H9
Sequence (Q9Y2H9 962-1065): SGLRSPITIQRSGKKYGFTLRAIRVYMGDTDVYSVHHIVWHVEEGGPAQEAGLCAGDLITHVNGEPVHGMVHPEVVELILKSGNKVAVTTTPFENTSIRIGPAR
Experiment: holdup assay
Design: key: below the threshold = too weak to quantify, mostly under pKd 3.1 to 4
Conditions: plain residues with an end cap or a label only (N-terminal biotin on a linker: ado-ado)

Binder	pKd
KKMPSIESDV [GRIN2A, Q12879]	below the threshold

Target: T5, MPDZ_5, O75970
T5 sequence (O75970 695-796, limits assumed, looked up): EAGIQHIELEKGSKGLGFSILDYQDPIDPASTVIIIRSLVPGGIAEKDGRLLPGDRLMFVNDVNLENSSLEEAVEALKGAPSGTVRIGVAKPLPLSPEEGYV
Experiment: holdup assay
Design: key: below the threshold = too weak to quantify, mostly under pKd 3.1 to 4
Conditions: plain residues with an end cap or a label only (N-terminal biotin on a linker: ado-ado)

Binder	pKd
KKMPSIESDV [GRIN2A, Q12879]	below the threshold

Target: T6, MPP6, Q9NZW5
T6 sequence (Q9NZW5 125-219, limits assumed, looked up): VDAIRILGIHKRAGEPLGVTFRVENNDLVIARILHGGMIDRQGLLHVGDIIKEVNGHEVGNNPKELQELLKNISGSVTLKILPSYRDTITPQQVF
Experiment: holdup assay
Design: key: below the threshold = too weak to quantify, mostly under pKd 3.1 to 4
Conditions: plain residues with an end cap or a label only (N-terminal biotin on a linker: ado-ado)

Binder	pKd
KKMPSIESDV [GRIN2A, Q12879]	below the threshold

Target: NHERF2_2, Q15599
Sequence (Q15599 142-238): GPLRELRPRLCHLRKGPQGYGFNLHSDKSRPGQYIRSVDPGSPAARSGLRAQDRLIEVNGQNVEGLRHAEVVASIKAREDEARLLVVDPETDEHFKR
Experiment: holdup assay
Design: key: below the threshold = too weak to quantify, mostly under pKd 3.1 to 4
Conditions: plain residues with an end cap or a label only (N-terminal biotin on a linker: ado-ado)

Binder	pKd
KKMPSIESDV [GRIN2A, Q12879]	below the threshold

Target: T7, NHERF3_1, Q5T2W1
T7 sequence (Q5T2W1 4-100, limits assumed, looked up): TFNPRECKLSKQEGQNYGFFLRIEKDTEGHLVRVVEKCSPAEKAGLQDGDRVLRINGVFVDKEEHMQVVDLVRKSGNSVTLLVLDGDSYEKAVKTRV
Experiment: holdup assay
Design: key: below the threshold = too weak to quantify, mostly under pKd 3.1 to 4
Conditions: plain residues with an end cap or a label only (N-terminal biotin on a linker: ado-ado)

Binder	pKd
KKMPSIESDV [GRIN2A, Q12879]	below the threshold

Target: T8, NHERF3_4, Q5T2W1
T8 sequence (Q5T2W1 373-468, limits assumed, looked up): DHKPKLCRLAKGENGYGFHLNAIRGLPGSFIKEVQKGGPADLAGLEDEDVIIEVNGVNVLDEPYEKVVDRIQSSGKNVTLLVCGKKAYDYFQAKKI
Experiment: holdup assay
Design: key: below the threshold = too weak to quantify, mostly under pKd 3.1 to 4
Conditions: plain residues with an end cap or a label only (N-terminal biotin on a linker: ado-ado)

Binder	pKd
KKMPSIESDV [GRIN2A, Q12879]	below the threshold

Target: T9, PCLO, Q9Y6V0
T9 sequence (Q9Y6V0 4491-4600, limits assumed, looked up): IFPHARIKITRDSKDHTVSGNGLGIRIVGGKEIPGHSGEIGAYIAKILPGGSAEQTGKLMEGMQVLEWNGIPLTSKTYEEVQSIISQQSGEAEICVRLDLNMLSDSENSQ
Experiment: holdup assay
Design: key: below the threshold = too weak to quantify, mostly under pKd 3.1 to 4
Conditions: plain residues with an end cap or a label only (N-terminal biotin on a linker: ado-ado)

Binder	pKd
KKMPSIESDV [GRIN2A, Q12879]	below the threshold

Target: T10, PDZD2_2, O15018
T10 sequence (O15018 329-429, limits assumed, looked up): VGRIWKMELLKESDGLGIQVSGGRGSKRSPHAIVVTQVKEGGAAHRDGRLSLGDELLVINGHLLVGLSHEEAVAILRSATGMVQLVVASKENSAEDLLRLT
Experiment: holdup assay
Design: key: below the threshold = too weak to quantify, mostly under pKd 3.1 to 4
Conditions: plain residues with an end cap or a label only (N-terminal biotin on a linker: ado-ado)

Binder	pKd
KKMPSIESDV [GRIN2A, Q12879]	4.91

Target: T11, SIPA1L2, Q9P2F8
T11 sequence (Q9P2F8 945-1036, limits assumed, looked up): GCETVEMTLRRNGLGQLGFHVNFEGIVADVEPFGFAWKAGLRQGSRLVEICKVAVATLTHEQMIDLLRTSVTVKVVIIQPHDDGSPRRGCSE
Experiment: holdup assay
Design: key: below the threshold = too weak to quantify, mostly under pKd 3.1 to 4
Conditions: plain residues with an end cap or a label only (N-terminal biotin on a linker: ado-ado)

Binder	pKd
KKMPSIESDV [GRIN2A, Q12879]	below the threshold

Target: T12, SNTA1, Q13424
T12 sequence (Q13424 82-180, limits assumed, looked up): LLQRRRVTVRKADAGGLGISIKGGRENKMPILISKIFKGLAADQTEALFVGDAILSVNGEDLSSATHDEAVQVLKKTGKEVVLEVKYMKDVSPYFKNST
Experiment: holdup assay
Design: key: below the threshold = too weak to quantify, mostly under pKd 3.1 to 4
Conditions: plain residues with an end cap or a label only (N-terminal biotin on a linker: ado-ado)

Binder	pKd
KKMPSIESDV [GRIN2A, Q12879]	4.59
